Experimental data from publication PMC5987714 (The Journal of Cell Biology, 2018).

Legend:
TRAF2 = TRAF2 (UniProt Q12933); assay: two-color single-molecule coincidence; settings: reference: no ABL1; sites Y14
[1] = target: T1, mCherry-CAV1^Y14-p (CAV1 + ABL1 coexpression) (UniProt Q03135 1-178); assay: two-color single-molecule fluorescence coincidence
T1 sequence: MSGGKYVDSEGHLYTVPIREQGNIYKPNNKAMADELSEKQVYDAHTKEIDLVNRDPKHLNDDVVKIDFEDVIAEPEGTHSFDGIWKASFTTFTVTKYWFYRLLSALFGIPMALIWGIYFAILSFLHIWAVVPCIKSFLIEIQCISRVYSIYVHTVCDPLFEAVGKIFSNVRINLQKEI

[2] = target: T2, mCherry-CAV1^FL (caveolin-1, full length, amino acids 1–178) in cell-free caveolae (UniProt Q03135 1-178); assay: two-color single-molecule fluorescence coincidence
T2 sequence: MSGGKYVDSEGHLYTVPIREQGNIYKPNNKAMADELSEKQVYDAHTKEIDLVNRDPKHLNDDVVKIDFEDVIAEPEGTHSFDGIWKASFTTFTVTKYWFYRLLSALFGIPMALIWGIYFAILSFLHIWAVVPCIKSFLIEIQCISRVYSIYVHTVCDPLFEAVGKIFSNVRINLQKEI

CAV1 (caveolin-1; cell-free and transfected constructs) 1-178 (from UniProt Q03135) untagged ABL1 coexpressed
other: position of coincidence peak (TRAF2): stronger; reference 0.75

B1: GFP-TRAF2 (TNF receptor–associated factor 2), cell-free (natural protein)
chain: MAAASVTPPGSLELLQPGFSKTLLGTKLEAKYLCSACRNVLRRPFQAQCGHRYCSFCLASILSSGPQNCAACVHEGIYEEGISILESSSAFPDNAARREVESLPAVCPSDGCTWKGTLKEYESCHEGRCPLMLTECPACKGLVRLGEKERHLEHECPERSLSCRHCRAPCCGADVKAHHEVCPKFPLTCDGCGKKKIPREKFQDHVKTCGKCRVPCRFHAIGCLETVEGEKQQEHEVQWLREHLAMLLSSVLEAKPLLGDQSHAGSELLQRCESLEKKTATFENIVCVLNREVERVAMTAEACSRQHRLDQDKIEALSSKVQQLERSIGLKDLAMADLEQKVLEMEASTYDGVFIWKISDFARKRQEAVAGRIPAIFSPAFYTSRYGYKMCLRIYLNGDGTGRGTHLSLFFVVMKGPNDALLRWPFNQKVTLMLLDQNNREHVIDAFRPDVTSSSFQRPVNDMNIASGCPLFCPVSKMEAKNSYVRDDAIFIKAIVDLTGL
coincidence C = mCherry/(GFP+mCherry), Gaussian peak [1]: 0.6 | stoichiometry N [1]: ~1 mCherry-CAV1:GFP-TRAF2 | coincidence C = mCherry/(GFP+mCherry), Gaussian peak [2]: 0.75
